Earlier results on one substance are cited in publication PMC3020241.

The term Kd denotes the equilibrium constant for the complex coming apart.

The target in this data set is arrestin-1 (dimer) (Mus musculus) (UniProt P20443).

Regarding arrestin-1 (from UniProt P20443), the equilibrium dissociation constant (Kd) was 57.5 µM.
